Measured values as given in paper PMC11259757.
Read-outs that look alike come from different tables or passages of the source.

Tests used:
[1] = molecular target: 3f8 IgG with Fc variant V12, displayed on CHO cells (human); experiment: flow cytometry on cells
[2] = molecular target: 3f8 IgG with Fc variant 3a-11, displayed on CHO cells (human); experiment: flow cytometry on cells
[3] = molecular target: FcγRIIIa-176F extracellular domain, biotinylated (human) (UniProt P08637); experiment: BLI
[4] = molecular target: FcγRIIa-131H extracellular domain, biotinylated (human) (UniProt P12318); experiment: BLI
[5] = molecular target: FcγRIIa-131R extracellular domain, biotinylated (human); experiment: BLI
FcγRIIa-131R extracellular domain, biotinylated (human), sequence (P12318 34-217): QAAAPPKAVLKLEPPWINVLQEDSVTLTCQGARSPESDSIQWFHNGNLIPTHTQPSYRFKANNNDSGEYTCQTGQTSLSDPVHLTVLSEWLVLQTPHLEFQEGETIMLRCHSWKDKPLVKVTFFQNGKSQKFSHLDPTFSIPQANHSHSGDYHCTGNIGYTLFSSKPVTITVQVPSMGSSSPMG

[6] = molecular target: FcγRIIIa-176V extracellular domain, biotinylated (human) (UniProt P08637); experiment: BLI
[7] = molecular target: FcγRIIb extracellular domain, biotinylated (human) (UniProt P31994); experiment: BLI
[8] = molecular target: FcγRIIIa-176F extracellular domain, biotinylated (human) (UniProt P08637); experiment: BLI; remark: listed apart in the source
[9] = molecular target: FcγRIIa-131H extracellular domain, biotinylated (human) (UniProt P12318); experiment: BLI; remark: listed apart in the source
[10] = molecular target: FcγRIIa-131R extracellular domain, biotinylated (human); experiment: BLI; remark: listed apart in the source
[11] = molecular target: FcγRIIIa-176V extracellular domain, biotinylated (human) (UniProt P08637); experiment: BLI; remark: listed apart in the source
[12] = molecular target: FcγRIIb extracellular domain, biotinylated (human) (UniProt P31994); experiment: BLI; remark: listed apart in the source
[13] = molecular target: 3f8 IgG with Fc variant LPL, displayed on CHO cells (human); experiment: flow cytometry on cells
[14] = molecular target: 3f8 IgG with Fc variant 3a-1, displayed on CHO cells (human); experiment: flow cytometry on cells
[15] = molecular target: 3f8 IgG with Fc variant 3a-2, displayed on CHO cells (human); experiment: flow cytometry on cells
[16] = molecular target: 3f8 IgG with Fc variant 3a-5, displayed on CHO cells (human); experiment: flow cytometry on cells
[17] = molecular target: 3f8 IgG with Fc variant 3a-3, displayed on CHO cells (human); experiment: flow cytometry on cells
[18] = molecular target: 3f8 IgG with Fc variant 3a-14, displayed on CHO cells (human); experiment: flow cytometry on cells
[19] = molecular target: 3f8 IgG with Fc variant 3a-4, displayed on CHO cells (human); experiment: flow cytometry on cells
[20] = molecular target: 3f8 IgG with Fc variant 3a-7, displayed on CHO cells (human); experiment: flow cytometry on cells
[21] = molecular target: 3f8 IgG with Fc variant 3a-9, displayed on CHO cells (human); experiment: flow cytometry on cells
[22] = molecular target: 3f8 IgG with Fc variant 3a-8, displayed on CHO cells (human); experiment: flow cytometry on cells
[23] = molecular target: 3f8 IgG with Fc variant 3a-10, displayed on CHO cells (human); experiment: flow cytometry on cells

“FcγRIIb extracellular domain, biotinylated (from UniProt P31994 43-217) (receptor)” gave a FcγRIIb^High cells (%) [1] of 7.39% and a FcγRIIb MFI / TNFα MFI [2] of 12.9 MFI ratio.

Substance trastuzumab IgG with WT Fc (antibody) has a Kd [3] of 640 nM, a Kd [4] of 240 nM and a Kd [5] of 330 nM. The Kd [6] was 430 nM, the Kd [7] was 570 nM and the Kd [8] was 770 nM. It also gave a Kd [9] of 390 nM, a Kd [10] of 520 nM and a Kd [11] of 390 nM. The Kd [12] was 580 nM.

Work on “FcγRIIIa-176F extracellular domain, biotinylated (from UniProt P08637 17-208) (receptor)” yielded a FcγRIIIa-176F MFI / TNFα MFI [13] of 7.5 MFI ratio, a FcγRIIIa-176F^High cells (%) [13] of 0.25% and a FcγRIIIa-176F MFI / TNFα MFI [14] of 8 MFI ratio. It also gave a FcγRIIIa-176F^High cells (%) [14] of 0.1%, a FcγRIIIa-176F MFI / TNFα MFI [15] of 11.1 MFI ratio and a FcγRIIIa-176F^High cells (%) [15] of 0.61%. It also gave a FcγRIIIa-176F MFI / TNFα MFI [16] of 9.6 MFI ratio, a FcγRIIIa-176F^High cells (%) [16] of 0.8% and a FcγRIIIa-176F MFI / TNFα MFI [17] of 9.3 MFI ratio. For the same substance, the FcγRIIIa-176F^High cells (%) [17] was 0.81%, the FcγRIIIa-176F^High cells (%) [18] was 1.15% and the FcγRIIIa-176F MFI / TNFα MFI [19] was 8.6 MFI ratio. The FcγRIIIa-176F^High cells (%) [19] was 0.93%, the FcγRIIIa-176F^High cells (%) [20] was 1.15% and the FcγRIIIa-176F MFI / TNFα MFI [21] was 9.2 MFI ratio. It also gave a FcγRIIIa-176F MFI / TNFα MFI [22] of 13.2 MFI ratio, a FcγRIIIa-176F^High cells (%) [22] of 2.23% and a FcγRIIIa-176F MFI / TNFα MFI [23] of 6.9 MFI ratio.
